Data on 16 molecules can be found in US9005937B2, “Dual cofactor specific ribitol dehydrogenase and use thereof” (Konkuk University Industrial Cooperation Corp., priority 2011, dated 2015).

One series relates to ribitol dehydrogenase. The format is biochemical, Zymomonas mobilis.
In series [1] the target is T1, Zymomonas mobilis ribitol dehydrogenase, wild-type, SEQ ID NO: 4 (Zymomonas mobilis, UniProt Q5NQS1).
T1 sequence (Q5NQS1 74-338): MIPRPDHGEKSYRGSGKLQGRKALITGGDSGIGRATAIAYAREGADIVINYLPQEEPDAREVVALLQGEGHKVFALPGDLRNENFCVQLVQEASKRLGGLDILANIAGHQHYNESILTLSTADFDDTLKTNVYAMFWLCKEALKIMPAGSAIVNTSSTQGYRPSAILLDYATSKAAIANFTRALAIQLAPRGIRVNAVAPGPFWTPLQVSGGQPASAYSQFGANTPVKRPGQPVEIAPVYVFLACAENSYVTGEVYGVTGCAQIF
Kind of series: Dynamical (kinetic) parameters of ribitol dehydrogenase to coenzyme NAD(H)/NADP(H), wild-type. The format is biochemical. Conditions: NADP 0.01 to 3 mM.

Substrate in series [2]: NC(=O)c1ccc[n+]([C@@H]2O[C@H](COP(=O)(O)OP(=O)(O)OC[C@H]3O[C@@H](n4cnc5c(N)ncnc54)[C@H](OP(=O)(O)O)[C@@H]3O)[C@@H](O)[C@H]2O)c1
The series is described as follows: Dynamical parameters to coenzyme, variant S156C. In kind it is biochemical, Zymomonas mobilis. Conditions: other: NADP 0.01 to 3 mM, ribitol, pH 9.0. The source says:
(§1) There were no differences between the expression amount of various amino acid variants of Ser 156 and the expression amount of wide-type. The dynamical parameter of each of variants was confirmed using the above variants.

Substrate in series [3]: NC(=O)c1ccc[n+]([C@@H]2O[C@H](COP(=O)(O)OP(=O)(O)OC[C@H]3O[C@@H](n4cnc5c(N)ncnc54)[C@H](OP(=O)(O)O)[C@@H]3O)[C@@H](O)[C@H]2O)c1
The series is described as follows: Dynamical parameters to coenzyme, variant S156A. In kind it is biochemical, Zymomonas mobilis. The following applies: other: NADP 0.01 to 3 mM, ribitol, pH 9.0.
Source text: as §1

Substrate in series [4]: NC(=O)c1ccc[n+]([C@@H]2O[C@H](COP(=O)(O)OP(=O)(O)OC[C@H]3O[C@@H](n4cnc5c(N)ncnc54)[C@H](OP(=O)(O)O)[C@@H]3O)[C@@H](O)[C@H]2O)c1
Kind of series: Dynamical parameters to coenzyme, variant S156G. The following applies: other: NADP 0.01 to 3 mM, ribitol, pH 9.0. In kind it is biochemical, Zymomonas mobilis.
Source text: as §1

Substrate in series [5]: NC(=O)c1ccc[n+]([C@@H]2O[C@H](COP(=O)(O)OP(=O)(O)OC[C@H]3O[C@@H](n4cnc5c(N)ncnc54)[C@H](OP(=O)(O)O)[C@@H]3O)[C@@H](O)[C@H]2O)c1
Kind of series: Dynamical parameters to coenzyme, variant S156E. The following applies: other: NADP 0.01 to 3 mM, ribitol, pH 9.0. In kind it is biochemical, Zymomonas mobilis.
Source text: as §1

Substrate in series [6]: NC(=O)c1ccc[n+]([C@@H]2O[C@H](COP(=O)(O)OP(=O)(O)OC[C@H]3O[C@@H](n4cnc5c(N)ncnc54)[C@H](OP(=O)(O)O)[C@@H]3O)[C@@H](O)[C@H]2O)c1
Kind of series: Dynamical parameters to coenzyme, variant S156Y. The format is biochemical, Zymomonas mobilis. Conditions: other: NADP 0.01 to 3 mM, ribitol, pH 9.0.
Source text: as §1

Substrate in series [7]: NC(=O)c1ccc[n+]([C@@H]2O[C@H](COP(=O)(O)OP(=O)(O)OC[C@H]3O[C@@H](n4cnc5c(N)ncnc54)[C@H](OP(=O)(O)O)[C@@H]3O)[C@@H](O)[C@H]2O)c1
The series is described as follows: Dynamical parameters to coenzyme, variant S156D. In kind it is biochemical, Zymomonas mobilis. The following applies: other: NADP 0.01 to 3 mM, ribitol, pH 9.0.
Source text: In addition, the present invention provides a ribitol dehydrogenase mutant selected from the group consisting of a) a mutant, in which serine, an amino acid at position 156 of the ribitol dehydrogenase having an amino acid sequence as set forth in SEQ ID NO: 4 is substituted with aspartic acid; and b) a mutant, in which tyrosine, an amino acid at position 51 of the ribitol dehydrogenase having an amino acid sequence as set forth in SEQ ID NO: 4 is substituted with aspartic acid and serine, an amino acid at position 156 is substituted with alanine.
The mutants have preferably amino acid sequences as set forth in SEQ ID NOS: 5 and 6, respectively, but the present invention is not limited thereto.
as §1

Substrate in series [8]: NC(=O)c1ccc[n+]([C@@H]2O[C@H](COP(=O)(O)OP(=O)(O)OC[C@H]3O[C@@H](n4cnc5c(N)ncnc54)[C@H](OP(=O)(O)O)[C@@H]3O)[C@@H](O)[C@H]2O)c1
The series is described as follows: Dynamical parameters to coenzyme, variant S156W. Conditions: other: NADP 0.01 to 3 mM, ribitol, pH 9.0. In kind it is biochemical, Zymomonas mobilis.
Source text: as §1

Substrate in series [9]: NC(=O)c1ccc[n+]([C@@H]2O[C@H](COP(=O)(O)OP(=O)(O)OC[C@H]3O[C@@H](n4cnc5c(N)ncnc54)[C@H](OP(=O)(O)O)[C@@H]3O)[C@@H](O)[C@H]2O)c1
Kind of series: Dynamical parameters to coenzyme, variant S156T. In kind it is biochemical, Zymomonas mobilis. Conditions: other: NADP 0.01 to 3 mM, ribitol, pH 9.0.
Source text: as §1

The mark [10] stands for this setting: metal ion 10 mM, enzyme treated with 10 mM EDTA for 24 hours and dialyzed.

“Also recorded” adds a separate entry of the source. Where two headings read alike, the source gives them in different places.

Consider `[Cl-].[Cl-].[Co+2]` [CoCl2], for which, in the series on ribitol dehydrogenase, the “Relative activity (%) 10 mM” value stood at 62.5% and the “activity of enzyme in the presence of metal ion (in words)” value was “maximum enzyme activity; also recorded: the activity of enzyme was observed”.

Turning to `[Cl-].[Cl-].[Mg+2]` [MgCl2], the “Relative activity (%) 10 mM” value with ribitol dehydrogenase (setting [10]) turned out to be 0.4%.

For the molecule `[Ca+2].[Cl-].[Cl-]` [CaCl2], the “Relative activity (%) 10 mM” value in the series with ribitol dehydrogenase (setting [10]) came out at 1.1%.

Take `[Cl][Mn][Cl]` [MnCl2]: the “Relative activity (%) 10 mM” value with ribitol dehydrogenase (setting [10]) was found to be 100%. The “activity of enzyme in the presence of metal ion (in words)” value in the series with ribitol dehydrogenase (metal ion 10 mM, listed as Mn^2+) is on record as “maximum enzyme activity; also recorded: the activity of enzyme was observed”.

Regarding `[Cl-].[Cl-].[Zn+2]` [ZnCl2], in the series on ribitol dehydrogenase (setting [10]), the “Relative activity (%) 10 mM” value is reported as 0.3%.

As for `O=S(=O)([O-])[O-].[Cu+2]` [CuSO4], the “Relative activity (%) 10 mM” value in the series on ribitol dehydrogenase (setting [10]) is 0.1%.

Turning to `[Cl][Fe]([Cl])[Cl]` [FeCl3], the “Relative activity (%) 10 mM” value in the series on ribitol dehydrogenase (setting [10]) turned out to be 0.2%.

As to `NC(=O)c1ccc[n+]([C@@H]2O[C@H](COP(=O)(O)OP(=O)(O)OC[C@H]3O[C@@H](n4cnc5c(N)ncnc54)[C@H](OP(=O)(O)O)[C@@H]3O)[C@@H](O)[C@H]2O)c1` [NADP^+], the “kcat (NADP^+)” value in [1] came to 2.79 ± 0.15 s⁻¹.

B1: Zymomonas mobilis ribitol dehydrogenase (SEQ ID NO: 4) variant S156C (Zymomonas mobilis subsp. mobilis ZM4 = ATCC 31821; S229C) (protein)
chain: MIPRPDHGEKSYRGSGKLQGRKALITGGDSGIGRATAIAYAREGADIVINYLPQEEPDAREVVALLQGEGHKVFALPGDLRNENFCVQLVQEASKRLGGLDILANIAGHQHYNESILTLSTADFDDTLKTNVYAMFWLCKEALKIMPAGSAIVNTCSTQGYRPSAILLDYATSKAAIANFTRALAIQLAPRGIRVNAVAPGPFWTPLQVSGGQPASAYSQFGANTPVKRPGQPVEIAPVYVFLACAENSYVTGEVYGVTGCAQIF
Take B1: in series [2], the Michaelis-Menten constant (Km) turned out to be 170 ± 20 µM, the kcat came to 2.05 ± 0.10 s⁻¹ and the kcat/Km is 12100 M⁻¹ s⁻¹.

B2: Zymomonas mobilis ribitol dehydrogenase (SEQ ID NO: 4) variant S156A (Zymomonas mobilis subsp. mobilis ZM4 = ATCC 31821; S229A) (protein)
chain: MIPRPDHGEKSYRGSGKLQGRKALITGGDSGIGRATAIAYAREGADIVINYLPQEEPDAREVVALLQGEGHKVFALPGDLRNENFCVQLVQEASKRLGGLDILANIAGHQHYNESILTLSTADFDDTLKTNVYAMFWLCKEALKIMPAGSAIVNTASTQGYRPSAILLDYATSKAAIANFTRALAIQLAPRGIRVNAVAPGPFWTPLQVSGGQPASAYSQFGANTPVKRPGQPVEIAPVYVFLACAENSYVTGEVYGVTGCAQIF
As to B2, in [3], the Km came out at 390 ± 130 µM, the kcat stood at 1.19 ± 0.07 s⁻¹ and the kcat/Km was 3050 M⁻¹ s⁻¹.

B3: Zymomonas mobilis ribitol dehydrogenase (SEQ ID NO: 4) variant S156G (Zymomonas mobilis subsp. mobilis ZM4 = ATCC 31821; S229G) (protein)
chain: MIPRPDHGEKSYRGSGKLQGRKALITGGDSGIGRATAIAYAREGADIVINYLPQEEPDAREVVALLQGEGHKVFALPGDLRNENFCVQLVQEASKRLGGLDILANIAGHQHYNESILTLSTADFDDTLKTNVYAMFWLCKEALKIMPAGSAIVNTGSTQGYRPSAILLDYATSKAAIANFTRALAIQLAPRGIRVNAVAPGPFWTPLQVSGGQPASAYSQFGANTPVKRPGQPVEIAPVYVFLACAENSYVTGEVYGVTGCAQIF
In the case of B3, in series [4], the Km worked out at 340 ± 70 µM, the catalytic constant (kcat) was 0.72 ± 0.08 s⁻¹ and the kcat/Km came to 2120 M⁻¹ s⁻¹.

B4: Zymomonas mobilis ribitol dehydrogenase (SEQ ID NO: 4) variant S156E (Zymomonas mobilis subsp. mobilis ZM4 = ATCC 31821; S229E) (protein)
chain: MIPRPDHGEKSYRGSGKLQGRKALITGGDSGIGRATAIAYAREGADIVINYLPQEEPDAREVVALLQGEGHKVFALPGDLRNENFCVQLVQEASKRLGGLDILANIAGHQHYNESILTLSTADFDDTLKTNVYAMFWLCKEALKIMPAGSAIVNTESTQGYRPSAILLDYATSKAAIANFTRALAIQLAPRGIRVNAVAPGPFWTPLQVSGGQPASAYSQFGANTPVKRPGQPVEIAPVYVFLACAENSYVTGEVYGVTGCAQIF
Take B4: in series [5], the Km was found to be 350 ± 40 µM, the kcat worked out at 2.39 ± 0.15 s⁻¹ and the kcat/Km is 6830 M⁻¹ s⁻¹.

B5: Zymomonas mobilis ribitol dehydrogenase (SEQ ID NO: 4) variant S156Y (Zymomonas mobilis subsp. mobilis ZM4 = ATCC 31821; S229Y) (protein)
chain: MIPRPDHGEKSYRGSGKLQGRKALITGGDSGIGRATAIAYAREGADIVINYLPQEEPDAREVVALLQGEGHKVFALPGDLRNENFCVQLVQEASKRLGGLDILANIAGHQHYNESILTLSTADFDDTLKTNVYAMFWLCKEALKIMPAGSAIVNTYSTQGYRPSAILLDYATSKAAIANFTRALAIQLAPRGIRVNAVAPGPFWTPLQVSGGQPASAYSQFGANTPVKRPGQPVEIAPVYVFLACAENSYVTGEVYGVTGCAQIF
For B5, in [6], the Km amounted to 230 ± 130 µM, the kcat was determined as 1.42 ± 0.16 s⁻¹ and the specificity constant (kcat/Km) was 6170 M⁻¹ s⁻¹.

B6: Zymomonas mobilis ribitol dehydrogenase (SEQ ID NO: 4) variant S156D, SEQ ID NO: 5 (Zymomonas mobilis subsp. mobilis ZM4 = ATCC 31821; N321D/S229D) (protein)
chain: MIPRPDHGEKSYRGSGKLQGRKALITGGDSGIGRATAIAYAREGADIVINYLPQEEPDAREVVALLQGEGHKVFALPGDLRNENFCVQLVQEASKRLGGLDILANIAGHQHYNESILTLSTADFDDTLKTNVYAMFWLCKEALKIMPAGSAIVNTDSTQGYRPSAILLDYATSKAAIANFTRALAIQLAPRGIRVNAVAPGPFWTPLQVSGGQPASAYSQFGANTPVKRPGQPVEIAPVYVFLACAEDSYVTGEVYGVTGCAQIF
As to B6, in [7], the Km was found to be 300 ± 30 µM, the kcat turned out to be 2.46 ± 0.21 s⁻¹ and the kcat/Km was determined as 8200 M⁻¹ s⁻¹.

B7: Zymomonas mobilis ribitol dehydrogenase (SEQ ID NO: 4) variant S156W (Zymomonas mobilis subsp. mobilis ZM4 = ATCC 31821; S229W) (protein)
chain: MIPRPDHGEKSYRGSGKLQGRKALITGGDSGIGRATAIAYAREGADIVINYLPQEEPDAREVVALLQGEGHKVFALPGDLRNENFCVQLVQEASKRLGGLDILANIAGHQHYNESILTLSTADFDDTLKTNVYAMFWLCKEALKIMPAGSAIVNTWSTQGYRPSAILLDYATSKAAIANFTRALAIQLAPRGIRVNAVAPGPFWTPLQVSGGQPASAYSQFGANTPVKRPGQPVEIAPVYVFLACAENSYVTGEVYGVTGCAQIF
Regarding B7, in [8], the Km was 210 ± 30 µM, the kcat turned out to be 2.05 ± 0.11 s⁻¹ and the kcat/Km came out at 9760 M⁻¹ s⁻¹.

B8: Zymomonas mobilis ribitol dehydrogenase (SEQ ID NO: 4) variant S156T (Zymomonas mobilis subsp. mobilis ZM4 = ATCC 31821; S229T) (protein)
chain: MIPRPDHGEKSYRGSGKLQGRKALITGGDSGIGRATAIAYAREGADIVINYLPQEEPDAREVVALLQGEGHKVFALPGDLRNENFCVQLVQEASKRLGGLDILANIAGHQHYNESILTLSTADFDDTLKTNVYAMFWLCKEALKIMPAGSAIVNTTSTQGYRPSAILLDYATSKAAIANFTRALAIQLAPRGIRVNAVAPGPFWTPLQVSGGQPASAYSQFGANTPVKRPGQPVEIAPVYVFLACAENSYVTGEVYGVTGCAQIF
For B8, in series [9], the Km turned out to be 220 ± 30 µM, the kcat is 1.64 ± 0.22 s⁻¹ and the kcat/Km stood at 7450 M⁻¹ s⁻¹.
